Test results reported in patent US20240218057A1 (ROCKEFELLER UNIVERSITY, published 2024).

B1: C980 (antibody, V domains shown)
VH: QVQLVQSGAEVKKPGSSVKVSCEASGGTFSSDSINWVRQAPGQGLEWMGRIIPIFGATNYAQKFQGRVTITADKSTDTVYMEVSSLTSEDTAVYYCARGGIAVGGWWFDPWGQGTLVTVSS
VL: EIVMTQSPATLSVSPGERATLSCRASESVSSKLAWYQQKPGQAPRLLIYGASTRATGISARFSGSGSGTDFTLTISSLESEDFAVYYCQQYNHWPPNTFGQGTKLEIK
B2: C901 (antibody, V domains shown)
VH: QVQLVESGGGVVQPGRSLRIACGASGFTFSTYDMHWVRQAPVKGLEWVAVISRDGSGKFYADSVKGRFTISRDNSKKTLYLQMDSLRPEDTAMYYCARDFESRTWDPPKYYYALDVWGQGTTVTVSS
VL: DIQMTQSPSSLSASVGDRVTITCRASQSISTYLNWYQQKPGKAPSLLIYAASSLYSGVPSRFSGSGSGTDFSLTISSLQPEDFATYYCQQTYTTPTWTFGQGTKVEIK
B3: C902 (antibody, V domains shown)
VH: EVQLVQSGAEVKKPGESLRISCKGSGYSFHTYWIHWVRQMPGKGLEWMGKIDPSDSYTNYSPSFQGHVTFSADRSISTAYLQWSSLKASDTATYYCARLSWSPPTRTTDEKNWFDPWGQGTLVTVSS
VL: DIQLTQSPSFLAASAGDRVTITCRASQGISSYLAWYQQKPGKAPKVLIYAASTLQSGVPSRFSGSGSGTEFTLTISSLQPEDCATYYCQQFNSDPLTFGGGTKVEIK
B4: C970 (antibody, V domains shown)
VH: QVQLQESGPGLVKPSETLSLTCTVSGDSINKYYWGWIRQPPGKGLEWIGYIYYSGTTNYNPSLKSRVTISVDTSKTQFSLKLSSVTAADTAVYYCARLLSTEWSFNWFDPWGQGTLVTVSS
VL: SYELTQPPSVSVSPGQTASITCSGDTLGDKYACWYQQKPGQSPLLVIYQNNKRPSGIPERFSGSNSGNTATLTISGTQAMDEADYYCQAWDSSTAYVFGTGTKVTVL
B5: C566 (antibody, V domains shown)
VH: QVQLQESGPGLVKSSQTLSLNCSVFGASISSGGYYWTWIRQHPGKGLEWIGYIHYRGTYYNPSLKSRVTMSVDTSKNQFSLKVRSVSAADTAIYYCARAIVVVTLNWFDLWGQGTLVTVSS
VL: NFMLTQPHSVSESPGKTVTISCSGSGGSIASNYVQWYQQRPGSAPTAVIYEDNQRPSGVPDRFSGSIDSSSNSASLTISGLKTEDEADYYCQSYDTSNPVIFGGGTKLTV
B6: C101 (antibody, V domains shown)
VH: QVQLVESGGGLIQPGGSLRLSCAASGFIVSSNYMSWVRQAPGKGLEWVSVIYSGGSTFYTDSVKGRFTISRDNSKNTLYLQMNSLRAEDTAVYYCVRDYGDFYFDYWGQGTLVTVSS
VL: EIVLTQSPGTLSLSPGERATLSCRASQSVSSSYLAWYQQKPGQAPRLLIYGASSRATGIPDRFSGGGSETDFTLTISRLEPEDCAVYYCQQYGSSPRTFGQGTKVEIK
B7: C580 (antibody, V domains shown)
VH: EVQLVQSGAEVKKAGESLKISCNSSGYSFTNYWIAWVRQVPGKGLEWMGIIYLGDSDTRYSPSFQGRVTISADKSISAAYLHWSSLKASDTAIYYCARGGPPGGVKLELTDFWGQGTLVTVSS
VL: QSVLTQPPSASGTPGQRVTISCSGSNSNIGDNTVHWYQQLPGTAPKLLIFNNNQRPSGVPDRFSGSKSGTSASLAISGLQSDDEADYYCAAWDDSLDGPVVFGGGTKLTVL
B8: C570 (antibody, V domains shown)
VH: QVQLQESGPGLVKPSETLSLTCTVSGASISSYYWSWIRQPPGKGLEWIGYIYYSGSTNYNPSLKSRVTISLDTSKNQFSLQLSSVTAADTAVYYCATYYFDNSGYSYGLDVWGQGTTVTVSS
VL: DIQMTQSPSSLSASVGDRVTIACRASQSISSYLHWYQQQPGKAPKLLIYAVTNLQSGVPSRFSGSGSGTDFTLTISSLQPEDFATYYCQQSYSLPQTFGQGTKVEIK
B9: C572 (antibody, V domains shown)
VH: EVQLVESGGGLIKPGRSLRLSCTASGFTFGDYAMTWFRQAPGKGLEWVGFIRSKAYGGTTGYAASVKYRFTISRDDSKSIAYLQMDSLKTEDTAVYYCTRWDGWSQHDYWGQGTLVTVSS
VL: DIVMTQSPLSLSVTPGEPASISCRSSQSLLHSNGNNYFDWYLQKPGQSPQLLIYLASNRASGVPDRFSGSGSGTDFTLKISRVEAEDVGVYYCMQVLQIPYTFGQGTKLEI
B10: C573 (antibody, V domains shown)
VH: QVQLQESGPGLVKPSGTLSLTCAVSGGSISTVNWWSWVRQPPGKGLEWIGEIHHSGNTNHNPSLRSRVTISVDKSKNQFSLKLRSVTAADTAVYYCARDGGRPGDAFDLWGQGTMVTVSS
VL: QSALTQPASVSGSPGQSITISCTGTSSDVGGYNYVSWYQQHPGKVPKVMIYDVSNRPSGISNRFSGSKSGNTASLTISGLQAEDEADYYCNSYRSNSTRVFGTGTKVTV
B11: C044 (antibody, V domains shown)
VH: EVQLVESGGGLVQPGGSLRLSCAASGFTFSSYSMNWVRQAPGKGLEWVSYISSSSSTIYYADSVKGRFTISRDNAKNSLYLQMNSLRDEDTAVYYCAREAHDGALTDYGDYLNWFDPWGQGTLVTVSS
VL: SYELTQPPSVSVAPGKTARITCGGNNIGSKSVHWYQQKPGQAPVLVIYYDSDRPSGIPERFSGSNSGNTATLTISRVEAGDEADYYCQVWDSSSDHLYWVFGGGTKLTVL

Target: T1, SARS-CoV-2 receptor-binding domain (RBD), S protein residues 319-539 (SARS-CoV-2, UniProt P0DTC2 319-539)
T1 construct: also called WT RBD; SARS-COV-2 RBD
Assay: ELISA on coated RBD

**Q.** B1 was tested. Which EC50 did it give?
**A.** 4.07 ng/mL

**Q.** With B2 as the binder, how does the EC50 read?
**A.** 2.16 ng/mL

**Q.** Which EC50 does the source give for B3 here?
**A.** 3.4 ng/mL

**Q.** B4 was tested. Which EC50 did it give?
**A.** 3.71 ng/mL

Target: SARS-COV-2 RBD (SARS-COV-2, UniProt P0DTC2 319-539)
Assay: ELISA, RBD coated on plate

**Q.** How did the EC50 turn out when B5 was run?
**A.** 5.88 ng/mL

**Q.** Which EC50 does the source give for B6 here?
**A.** 1.51 ng/mL

**Q.** How did the EC50 turn out when B7 was run?
**A.** 1.81 ng/mL

**Q.** How did the EC50 turn out when B8 was run?
**A.** 0.74 ng/mL

**Q.** For B9, which EC50 is on record?
**A.** 2.9 ng/mL

**Q.** With B10 as the binder, how does the EC50 read?
**A.** 2.2 ng/mL

Target: SARS-CoV-2 receptor-binding domain (WT RBD; S protein residues 319-539) (SARS-CoV-2, UniProt P0DTC2 319-539)
Assay: BLI (Octet Red), IgG on protein A biosensor, WT RBD in solution, 1:1 fit

**Q.** For B11, which Kd is on record?
**A.** 189 nM
